1 molecule from doi:10.1101/842088 can be followed below.

Common to all, as to assay: fluorescence polarization
A general note: Polarisation of emitted light reports the rotation of a fluorescent probe.

For series [1], the target named is NS3h WT (dengue virus 4, UniProt P09866 1646-2092).
Series [2] concerns the target T1, NS3h WT (T7 Shuffle) (dengue virus 4, UniProt P09866 1646-2092).
Series [3] deals with T1, NS3h WT (T7 Shuffle). This is another data set of the same source.

Like-named read-outs stand apart in the source and are kept apart here.

T1 sequence (P09866 1646-2092): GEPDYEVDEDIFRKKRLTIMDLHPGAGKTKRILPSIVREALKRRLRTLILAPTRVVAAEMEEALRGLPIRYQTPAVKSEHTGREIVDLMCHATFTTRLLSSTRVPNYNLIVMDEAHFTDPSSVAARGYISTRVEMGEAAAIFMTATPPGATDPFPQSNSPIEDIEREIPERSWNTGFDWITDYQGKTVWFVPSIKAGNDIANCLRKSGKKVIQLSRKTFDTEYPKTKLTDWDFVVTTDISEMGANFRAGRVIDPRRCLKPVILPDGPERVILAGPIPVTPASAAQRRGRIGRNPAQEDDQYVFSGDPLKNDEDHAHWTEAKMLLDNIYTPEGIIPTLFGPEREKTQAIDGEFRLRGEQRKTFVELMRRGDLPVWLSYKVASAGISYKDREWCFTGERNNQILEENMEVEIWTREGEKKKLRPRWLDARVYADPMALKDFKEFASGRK
Sequence of NS3h WT (P09866 1646-2092): as above

Usually Kd stands for the equilibrium constant for the complex coming apart. Low readings indicate a tighter complex, high ones a looser complex. With AGUAA (ssRNA, 5'-diphosphate (pp (so in the source))) [ppAGUAA Alexa-488 RNA oligo], the Kd in series [1] is 1.9 ± 0.8 µM; in series [2] it was 3.4 ± 1.4 µM; in series [3], 4.5 ± 1.5 µM.
